Experimental data: PMC11667226 (Theranostics, 2025)
Marks after values point to notes of the source that are not given here. Non-standard residues stand in square brackets, D forms with d. Residues, ends and D or L forms follow the SMILES beside them. *: point of attachment. X1 = CC1(C)C(=CC=CC=CC=CC2=[N+](CCCCCC(=O)*)c3ccc4ccccc4c3C2(C)C)N(CCCCS(=O)(=O)[O-])c2ccc3ccccc3c21; Cha = N[C@@H](CC1CCCCC1)C(=O)O

Legend:
[1] = tested on: neck lymph node metastasis; assay: Optical visualization of neck lymph node metastasis; type: in vivo, human
Protocol: All patients were treated surgically according to the national guidelines. The primary investigator (PI) was part of the surgical team in all procedures. A surgical robot system (DaVinci Si, Intuitive) was used for TORS in the two patients with OPSCC. The surgeons were not allowed to resect tissue based on intraoperative detected fluorescence signal but complied with standard of care. Depending on the clinical TNM staging (based on clinical examination, ultrasonography examination of the neck, and MRI or CT scans), either sentinel lymph node biopsy (using 99^mTc-nanocoll) or neck dissection was performed for neck management. Post-surgical (chemo)radiation was prescribed according to national guidelines at a multidisciplinary conference. The pre-, intraoperative, and ex-vivo optical images were obtained using the open-field imaging system Elevision® model VS3 Iridium-Visionsense Infrared (IR) Fluorescence, Vision System (Medtronics, USA). Image profile: NIR_highcontrast or NIR_contrast, excitation laser: 805 nm. The Elevision IR system generates real-time optical imaging merged with the color video recording on a viewer screen. The intensity-dependent multi-color NIR overlay was presented in parallel with white-light and NIR grayscale images. The camera head was mounted on a maneuverable arm over the surgical field with sterile draping. The preferred camera-to-tumor distance was 20-40 centimeters, but the system also allows positioning at closer or longer distances to areas of interest. For optimal imaging, all other light sources in the OR were switched off and window blinds were closed. The imaging system itself provides powerful white light illumination of the surgical field when imaging is performed.
The exploratory endpoints were defined as: 1) Morphological co-localization between optical signal, tumor tissue, and target (i.e. uPAR) expression, 2) Optical visualization of local neck lymph node metastasis, and 3) Longitudinal investigation of the optimal signal intensity for intraoperative imaging.

clinical = assay: clinical
Protocol: The blood samples were collected in Vacuette® 3 mL K2E K2EDTA vacutainer blood collection tubes, centrifuged (2500 rpm for 10 min at 4 °C), and the plasma was stored in a -20 °C freezer. Plasma concentrations were measured based on liquid chromatography with tandem mass spectrometric detection (LC-MS/MS) validated according to good laboratory practice (GLP), (LabCorp, Huntingdon, UK). The PK analysis was performed using a non-compartmental analysis method. […] The terminal phase half-life (T½) was calculated using terminal phase rate constant, which resulted from linear regression of the terminal linear portion of the log-concentration vs. time curve.
The primary endpoint was the sensitivity for detection of oral and oropharyngeal cancer verified by histology. The secondary endpoints were divided into efficacy and safety & tolerability. Regarding efficacy, the TBR and intraoperative tumor signal intensity were endpoints. The pharmacokinetics profile determined by a non-compartmental analysis was specified by peak plasma concentration, time of peak plasma concentration, the area under the plasma concentration-time curve from time-zero extrapolated to infinity, and terminal half-life. The safety & tolerability were assessed with adverse event monitoring, laboratory parameters, ECGs, vital signs, and physical examinations.

CC(C)C[C@H](NC(=O)[C@H](Cc1ccc(O)cc1)NC(=O)[C@@H](CCCNC(=N)N)NC(=O)[C@@H](CO)NC(=O)[C@H](Cc1ccccc1)NC(=O)[C@H](CC1CCCCC1)NC(=O)[C@H](CC(=O)O)NC(=O)[C@H](CCC(=O)O)NC(=O)[C@H](CCC(=O)O)NC(=O)CCCCC[N+]1=C(C=CC=CC=CC=C2N(CCCCS(=O)(=O)[O-])c3ccc4ccccc4c3C2(C)C)C(C)(C)c2c1ccc1ccccc21)C(=O)N[C@@H](Cc1c[nH]c2ccccc12)C(=O)N[C@@H](CO)C(=O)O [FG001, ICG-Glu-Glu-AE105] (X1-EED[Cha]F[dS][dR]YLWS-OH; N-terminus and C-terminus assumed)
Intraoperative visualization of clinical neck metastasis ([1]; during neck dissection, confirmed on back table and by pathology): clearly visualized
Uptake in adjacent unaffected lymph nodes ([1]; no systematic imaging of lymph nodes without clinical evidence of metastasis): No uptake
Optical signal of harvested sentinel nodes ([1]; two cases with SNB staging, nodes all negative for metastatic deposits on final pathology): absent or weak optical signal
Extrapolation to AUC from 0 to infinity (AUC0-inf) (clinical; all patients with a valid terminal phase): < 25%
Mean half-life of FG001 (clinical; human plasma, based on the plasma concentration measurements, all evaluable patients): approximately 12 hours
Maximum concentration (mean (SD)) (clinical; human plasma, single 4 mg i.v. dose, n = 4, LC-MS/MS): 577 (373)* ng/mL
Time of peak plasma concentration (clinical; human plasma, single i.v. dose, first sample at 1 hr ± 15 min): within the first hour
Tmax (clinical; human, plasma, iv): 1 h
Cmax (clinical; human, plasma, iv, 16 mg): 4300 ng/mL
Cmax (clinical; human, plasma, iv, 36 mg): 8130 ng/mL
half-life (clinical; human, plasma, iv, 36 mg): 11.2 h
Time of peak plasma concentration, one outlier (clinical; one patient in the 4 mg group): 12.8 h
